The labels stand for the following.
B1: full length wild-type GST-SNX9 (sorting nexin 9) [not stated] / clathrin heavy chain (CHC) [human (endogenous in HeLa)] (parent complex)
chain 1: MATKARVMYDFAAEPGNNELTVNEGEIITITNPDVGGGWLEGRNIKGERGLVPTDYVEILPSDGKDQFSCGNSVADQAFLDSLSASTAQASSSAASNNHQVGSGNDPWSAWSASKSGNWESSEGWGAQPEGAGAQRNTNTPNNWDTAFGHPQAYQGPATGDDDDWDEDWDGPKSSSYFKDSESADAGGAQRGNSRASSSSMKIPLNKFPGFAKPGTEQYLLAKQLAKPKEKIPIIVGDYGPMWVYPTSTFDCVVADPRKGSKMYGLKSYIEYQLTPTNTNRSVNHRYKHFDWLYERLLVKFGSAIPIPSLPDKQVTGRFEEEFIKMRMERLQAWMTRMCRHPVISESEVFQQFLNFRDEKEWKTGKRKAERDELAGVMIFSTMEPEAPDLDLVEIEQKCEAVGKFTKAMDDGVKELLTVGQEHWKRCTGPLPKEYQKIGKALQSLATVFSSSGYQGETDLNDAITEAGKTYEEIASLVAEQPKKDLHFLMECNHEYKGFLGCFPDIIGTHKGAIEKVKESDKLVATSKITLQDKQNMVKRVSIMSYALQAEMNHFHSNRIYDYNSVIRLYLEQQVQFYETIAEKLRQALSRFPVM
chain 2: MAQILPIRFQEHLQLQNLGINPANIGFSTLTMESDKFICIREKVGEQAQVVIIDMNDPSNPIRRPISADSAIMNPASKVIALKAGKTLQIFNIEMKSKMKAHTMTDDVTFWKWISLNTVALVTDNAVYHWSMEGESQPVKMFDRHSSLAGCQIINYRTDAKQKWLLLTGISAQQNRVVGAMQLYSVDRKVSQPIEGHAASFAQFKMEGNAEESTLFCFAVRGQAGGKLHIIEVGTPPTGNQPFPKKAVDVFFPPEAQNDFPVAMQISEKHDVVFLITKYGYIHLYDLETGTCIYMNRISGETIFVTAPHEATAGIIGVNRKGQVLSVCVEEENIIPYITNVLQNPDLALRMAVRNNLAGAEELFARKFNALFAQGNYSEAAKVAANAPKGILRTPDTIRRFQSVPAQPGQTSPLLQYFGILLDQGQLNKYESLELCRPVLQQGRKQLLEKWLKEDKLECSEELGDLVKSVDPTLALSVYLRANVPNKVIQCFAETGQVQKIVLYAKKVGYTPDWIFLLRNVMRISPDQGQQFAQMLVQDEEPLADITQIVDVFMEYNLIQQCTAFLLDALKNNRPSEGPLQTRLLEMNLMHAPQVADAILGNQMFTHYDRAHIAQLCEKAGLLQRALEHFTDLYDIKRAVVHTHLLNPEWLVNYFGSLSVEDSLECLRAMLSANIRQNLQICVQVASKYHEQLSTQSLIELFESFKSFEGLFYFLGSIVNFSQDPDVHFKYIQAACKTGQIKEVERICRESNCYDPERVKNFLKEAKLTDQLPLIIVCDRFDFVHDLVLYLYRNNLQKYIEIYVQKVNPSRLPVVIGGLLDVDCSEDVIKNLILVVRGQFSTDELVAEVEKRNRLKLLLPWLEARIHEGCEEPATHNALAKIYIDSNNNPERFLRENPYYDSRVVGKYCEKRDPHLACVAYERGQCDLELINVCNENSLFKSLSRYLVRRKDPELWGSVLLESNPYRRPLIDQVVQTALSETQDPEEVSVTVKAFMTADLPNELIELLEKIVLDNSVFSEHRNLQNLLILTAIKADRTRVMEYINRLDNYDAPDIANIAISNELFEEAFAIFRKFDVNTSAVQVLIEHIGNLDRAYEFAERCNEPAVWSQLAKAQLQKGMVKEAIDSYIKADDPSSYMEVVQAANTSGNWEELVKYLQMARKKARESYVETELIFALAKTNRLAELEEFINGPNNAHIQQVGDRCYDEKMYDAAKLLYNNVSNFGRLASTLVHLGEYQAAVDGARKANSTRTWKEVCFACVDGKEFRLAQMCGLHIVVHADELEELINYYQDRGYFEELITMLEAALGLERAHMGMFTELAILYSKFKPQKMREHLELFWSRVNIPKVLRAAEQAHLWAELVFLYDKYEEYDNAIITMMNHPTDAWKEGQFKDIITKVANVELYYRAIQFYLEFKPLLLNDLLMVLSPRLDHTRAVNYFSKVKQLPLVKPYLRSVQNHNNKSVNESLNNLFITEEDYQALRTSIDAYDNFDNISLAQRLEKHELIEFRRIAAYLFKGNNRWKQSVELCKKDSLYKDAMQYASESKDTELAEELLQWFLQEEKRECFGACLFTCYDLLRPDVVLETAWRHNIMDFAMPYFIQVMKEYLTKVDKLDASESLRKEEEQATETQPIVYGQPQLMLTAGPSVAVPPQAPFGYGYTAPPYGQPQPGFGYSM

The variants in the experiment derive from B1. The experiment in a line: GST pull-down, densitometry of immunoblots; lysates from asynchronously growing HeLa cells; 3-4 independent experiments; parent: 1; read off a plot. On the technique in general: Immunoblotting shows a protein as a band on a membrane.
For the variant chain 1 W165S, the ratio to parent was roughly 0.05. chain 1 W108S: the ratio to parent was roughly 0.44.

Regarding chain 1 W165S, chain 1 W169S, the ratio to parent was roughly 0.29. Take chain 1 W108S, chain 1 W111S: the ratio to parent is roughly 0.06.

Values taken from article PMC3702553 (2013).
